# Experimental data reported in paper PMC7105484, “Crystal structures of REF6 and its complex with DNA reveal diverse recognition mechanisms” (Cell Discovery, 2020).
# Substitutions are numbered along the chain they refer to.
# T1: REF6 D1342A (Arabidopsis thaliana, UniProt Q9STM3 1223-1360, D1342A)
# T1 sequence: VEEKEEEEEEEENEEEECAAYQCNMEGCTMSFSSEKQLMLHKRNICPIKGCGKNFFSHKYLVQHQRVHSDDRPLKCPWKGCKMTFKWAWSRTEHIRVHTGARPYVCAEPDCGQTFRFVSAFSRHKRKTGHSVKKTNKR
# T2: REF6 K1281A (Arabidopsis thaliana, UniProt Q9STM3 1223-1360, K1281A)
# T2 sequence: T1 sequence with K59A, A120D
# T3: REF6 ZnF1-4 WT (Arabidopsis thaliana, UniProt Q9STM3 1223-1360)
# T3 sequence: T1 sequence with A120D
# T4: REF6 F1339A (Arabidopsis thaliana, UniProt Q9STM3 1223-1360, F1339A)
# T4 sequence: T1 sequence with F117A, A120D
# T5: REF6 E1315A (Arabidopsis thaliana, UniProt Q9STM3 1223-1360, E1315A)
# T5 sequence: T1 sequence with E93A, A120D
# T6: REF6 Y1282A (Arabidopsis thaliana, UniProt Q9STM3 1223-1360, Y1282A)
# T6 sequence: T1 sequence with Y60A, A120D
# T7: REF6 V1340A (Arabidopsis thaliana, UniProt Q9STM3 1223-1360, V1340A)
# T7 sequence: T1 sequence with V118A, A120D
# B1: NAC004 m5 (dsDNA)
# DNA 1: CTTTCTCTGTTTTGTC
# DNA 2: GGACAAAACAGAGAAA
# Key:
# Assay in all cases: MST; MST: 20 mM HEPES pH 7.3, 150 mM NaCl, 0.2 mM TCEP, 0.5% CA-630, 25 C; EMSA: 30 uM protein, 10 uM dsDNA, 20 mM Tris pH 8.0, 100 mM NaCl, 2.5 mM MgCl2, 0.1% CA-630, 10% glycerol, 1 uM ZnSO4, 1 mM DTT, 4 C
# [1] = biological target: T1, REF6 D1342A; conditions: protein: recombinant; tags: His6-MBP or GST, TEV-cleavable; label: FAM in MST; none in crystal and EMSA; 5' overhang 1 nt on both strands, 15 bp
# [2] = biological target: T2, REF6 K1281A; conditions: protein: recombinant; tags: His6-MBP or GST, TEV-cleavable; label: FAM in MST; none in crystal and EMSA; 5' overhang 1 nt on both strands, 15 bp
# [3] = biological target: T3, REF6 ZnF1-4 WT; conditions: protein: recombinant; tags: His6-MBP or GST tag, TEV-cleavable (cleaved when necessary); label: FAM in MST; none in crystal and EMSA; 5' overhang 1 nt on both strands, 15 bp
# [4] = biological target: T4, REF6 F1339A; conditions: protein: recombinant; tags: His6-MBP or GST, TEV-cleavable; label: FAM in MST; none in crystal and EMSA; 5' overhang 1 nt on both strands, 15 bp
# [5] = biological target: T5, REF6 E1315A; conditions: protein: recombinant; tags: His6-MBP or GST, TEV-cleavable; label: FAM in MST; none in crystal and EMSA; 5' overhang 1 nt on both strands, 15 bp
# [6] = biological target: T6, REF6 Y1282A; conditions: protein: recombinant; tags: His6-MBP or GST, TEV-cleavable; label: FAM in MST; none in crystal and EMSA; 5' overhang 1 nt on both strands, 15 bp
# [7] = biological target: T7, REF6 V1340A; conditions: protein: recombinant; tags: His6-MBP or GST, TEV-cleavable; label: FAM in MST; none in crystal and EMSA; 5' overhang 1 nt on both strands, 15 bp
binder,measurement,setting,value
B1,Kd,[1],1300 nM
same,Kd,[2],1300 nM
same,Kd,[3],400 nM
same,Kd,[4],500 nM
same,Kd,[5],3.7 µM
same,Kd,[6],1100 nM
same,Kd,[7],500 nM
